The results in this text go back to the DeepSol protein solubility set.

The data set can be described thus: soluble on expression in E. coli; label from the status in PepcDB or PDB records.
Turning to “MPGTKRFQHVIETPEPGKWELSGYEAAVPITEKSNPLTQDLDKADAENIVRLLGQCDAEIFQEEGQALSTYQRLYSESILTTMVQVAGKVQEVLKEPDGGLVVLSGGGTSGRMAFLMSVSFNQLMKGLGQKPLYTYLIAGGDRSVVASREGTEDSALHGIEELKKVAAGKKRVIVIGISVGLSAPFVAGQMDCCMNNTAVFLPVLVGFNPVSMARNDPIEDWSSTFRQVAERMQKMQEKQKAFVLNPAIGPEGLSGSSRMKGGSATKILLETLLLAAHKTVDQGIAASQRCLLEILRTFERAHQVTYSQSPKIATLMKSVSTSLEKKGHVYLVGWQTLGIIAIMDGVECIHTFGADFRDVRGFLIGDHSDMFNQKAELTNQGPQFTFSQEDFLTSILPSLTEIDTVVFIFTLDDNLTEVQTIVEQVKEKTNHIQALAHSTVGQTLPIPLKKLFPSIISITWPLLFFEYEGNFIQKFQRELSTKWVLNTVSTGAHVLLGKILQNHMLDLRISNSKLFWRALAMLQRFSGQSKARCIESLLRAIHFPQPLSDDIRAAPISCHVQVAHEKEQVIPIALLSLLFRCSITEAQAHLAAAPSVCEAVRSALAGPGQKRTADPLEILEPDVQ”, the “soluble on expression in E. coli” value is “soluble”.

As to “MRDPEFWHNKWAANQIGFHLEDVNPLLIRFWSDLAPKRSEKVLVPLCGKSEDLIWLANQHDSVQGVELSQIAVRSFFAEHFYTPTVTRLNAQHELYQFDELTLFTGDFFTAPVESVDLVYDRAALVALPEEMRAEYAQRVLQLLKPGGRILLVSMDYVQTELSGPPFSVPEAEIRTLFMGCEVRRVYQDTSIDPHLNKRTQAGLSRFAEEVWVIEKSE”, the “soluble on expression in E. coli” value is reported as “not soluble”. Take “MGSDKIHHHHHHMQYIHVVNGDVAGNTLRQALAQAARPDPVVVLRDDLAVGPLVDVDSTGSIRSGFWQRVAPHTDIDFAAEMRQALDQLQKLRQSDMEIAIWHGQSAADQLMLRRVVFHLYQAPQRINEVAMDLRELELPPQAGLAAIGMYSPARLARRFSTIAPVSVLRLGRLGYEWQQNVRENADVRLWKGNTLVAAAYHSIDDIIMERAPSEWTPAAEVVGSVMGAIEGLLASDWFVFWRCRELISMGRMVLRGNADSLDTCELRRHVIASAE”: the “soluble on expression in E. coli” value is “not soluble”. “MPTVRVKEGENPEYALRRFKRSCEKAGILTELRRREFYEKPTAERKRKQAAAVKRHLKKISRDVSSRRGVGHRRKKSTTLEHHHHHH”: the “soluble on expression in E. coli” value is on record as “not soluble”. As to “MGSDKIHHHHHHMKLAKKYYAVRKGRVPGIYKTWKEAEEQVKGFPGAEYKSFERLEDAKAYMEGKNECICPELDTETMIAYVDGSYDEVCGSGIVLCYRGKKEEYYFWTNIEEFKDSRNITGEIMAALFAMDYALKKGARKLVLRYDLEGLEKWATEEYRTNKLVTKVYRHYYRKFCQMGLKVVFEKIKSHSGNFCNDEADSLAKKASKKESNVEWMPEDFESIIRTLTKKGGCL”, the “soluble on expression in E. coli” value is listed as “not soluble”. “MGKPTGFMEIKREKPAERDPLTRLKDWKEYSAPFSEEASKRQGARCMDCGTPFCQIGADINGFTSGCPIYNLIPEWNDLVYRGRWKEALERLLKTNNFPEFTGRVCPAPCEGSCTLAISDPAVSIKNIERTIIDKGFENGWIQPRIPKKRTGKKVAIVGSGPAGLASADQLNQAGHSVTVFERADRAGGLLTYGIPNMKLEKGIVERRIKLLTQEGIDFVTNTEIGVDITADELKEQFDAVILCTGAQKQRDLLIEGRDSKGVHYAMDYLTLATKSYLDSNFKDKQFIDAKGKDVIVIGGGDTGADCVATALRQKAKSVHQFGKHPKLPPARTNDNMWPEQPHVFTLEYAYEEREAKFGRDPREYSIQTTKMVADKNGKLKELHTIQMEKVKNEHGKYEFRELPGTEKVWPAQLVFIAIGFEGTEQPLLKQFGVNSVNNKISAAYGDYQTNIDGVFAAGDARRGQSLIVWAINEGREVAREVDRYLMGSSVLPLEHHHHHH”: the “soluble on expression in E. coli” value is listed as “soluble”. Take “MSLAVGKYTQLISDLLQSVSIVDALPRGAAQAGILCQDTKEVLESENTVLEIAIPRQDNLVIVGDIHGQFADMLSNVLSIQLNLNNTKATDGRGSPSTEIYKFLFLGDYVDRGPQSLEVITLLFALKVEYPEHIFLLRGNHEEAQTSRLYGFFQECKSKLEGTGDRGPASVDITSSTWLQYNTVFCWLPLAAVVACPSGMFFCTHGGLSPHTLSVPLLRSLRRNEYGMVDDFEDTFYTPTSRGGDDMLEGPGAKARLVIDGLLWSDPEDQVSGCQMNNRGCGFIFGPDVTRSFLDRNYSYGFPPSKRQLIGEMKPGMQFILRGHQCAREGYMWCHGGLVLTLFSAPNYCGMHGNKGAVALLRGQVQAGKDRVELEFNVYDTVVRGGSDNLVACLSPFAFAHYFSGDSEGHHHHHH”: the “soluble on expression in E. coli” value is recorded as “not soluble”.

Turning to “MLWSGCRRFGARLGCLPGGLRVLVQTGHRSLTSCIDPSMGLNEEQKEFQKVAFDFAAREMAPNMAEWDQKELFPVDVMRKAAQLGFGGVYIQTDVGGSGLSRLDTSVIFEALATGCTSTTAYISIHNMCAWMIDSFGNEEQRHKFCPPLCTMEKFASYCLTEPGSGSDAASLLTSAKKQGDHYILNGSKAFISGAGESDIYVVMCRTGGPGPKGISCIVVEKGTPGLSFGKKEKKVGWNSQPTRAVIFEDCAVPVANRIGSEGQGFLIAVRGLNGGRINIASCSLGAAHASVILTRDHLNVRKQFGEPLASNQYLQFTLADMATRLVAARLMVRNAAVALQEERKDAVALCSMAKLFATDECFAICNQALQMHGGYGYLKDYAVQQYVRDSRVHQILEGSNEVMRILISRSLLQE”, the “soluble on expression in E. coli” value is “not soluble”. Regarding “SLHLGEQIWIYQGKKKEWLLGQIPEVNSALVSLNSDNGAIEAIVGGFSFEQSRFNRATQSLVQVGSSIKPFIYAAAMNKGLSLSTTLSDTPITINKQGQKPWEPKNADKRYEGPLRLRVALGKSKNMVAIRALQMSGVDYVADYLSRFGFNPDQFMATEALALGAASFTPLEMARAYAVFDNGGYLIEPYIIDRILDNQGNELFKANPALACLECNHIDLAYQEPTYFDGVKIHDEDQLRAEIDEINANPAASNTQTEDDQEPEIATTIKPQAPSLMTESIKNDASMRYAPRVISGELAFLMRSALNSAIYGEPGQNWHGTSRAIAKAFKRKDIGGKTGTTNNSKVTWYAGFGANIVTTVYVGFDDNRRDLGKGEAGAKTAMPAWIKYMKVALADKK”, the “soluble on expression in E. coli” value is on record as “not soluble”.

Take “MKIALINENSQAAKNGIIYDALTTVTDKHGYQVFNYGMYGTEGESQLTYVQNGLLASILLTTKAADFVVTGCGTGVGAMLALNSFPGVTCGFASEPTEAYLFSQINGGNALSIPFAKGFGWGAELNLTLIFERLFAEPMGGGYPKERAIPEQRNARILSDLKKITYRDLLAIVKDIDQDFLKETISGAHFQEYFFANAEPSELVTYLKSVLEQ”: the “soluble on expression in E. coli” value is “not soluble”. In the case of “MEKKHIYLFCSAGMSTSLLVSKMRAQAEKYEVPVIIEAFPETLAGEKGQNADVVLLGPQIAYMLPEIQRLLPNKPVEVIDSLLYGKVDGLGVLKAAVAAIKKAAAN”, the “soluble on expression in E. coli” value was “soluble”. For “MGSDKIHHHHHHMSSQTTALNSGVHAKKADIFCQDEARVDWHSKALWVLREKRDRAAASLPEWEQLRQLGSEMKLHTLTHLGEYLETFEKNCQANGIVVHWAKDGAEHNQIVHNILAKHQVKKLVKSKSMLTEECHLNPYLESKGIEVIDTDLGERIIQLAKQPPSHIVVPAIHLKKEEVGDLFHDKLGTEAGASDPLYLTRAARAHLREQFLSADAAMTGVNMAIADKGAVVVCTNEGNADMGANLPKLQLHSMGIDKIVPDLDSAAILLRTLARNATGQPITTYSSFYRGPQDGGEMHVIIVDNGRTDMLQDKILAESLKCIRCGGCLNTCPVYRRSGGYSYNYTIPGPIGIAVGAQADDTHSIPWACTLCGSCSYVCPTKVPLDKIIHHHRRLKAKAGKLPYGKRNYMPLVGNFMASETMLNCSMSVARTALRILPGSLLKPFSGAWGKYRELPVAPKSSFEAWFNKNRGQ”, the “soluble on expression in E. coli” value was “not soluble”. To “GSPLPWCPHLVAVCPIPAAGLDVTQPCGDCGTIQENWVCLSCYQVYCGRYINGHMLQHHGNSGHPLVLSYIDLSAWCYYCQAYVHHQALLDVKNIAHQNKFGEDMPHPH” belongs “soluble”; to “MSLSSPNILLTRIDNRLVHGQVGVTWTSTIGANLLVVVDDVVANDDIQQKLMGITAETYGFGIRFFTIEKTINVIGKAAPHQKIFLICRTPQTVRKLVEGGIDLKDVNVGNMHFSEGKKQISSKVYVDDQDLTDLRFIKQRGVNVFIQDVPGDQKEQIPDEGHHHHHH”, “soluble”; to “NGSKTDLGLLSKNSADFLGSSKRSLAGFDTPFSPDNLQYLEKETDYDQNFKSFTEKFKDEKITNNQLGIVDIYNLFSGFHKSVKSTVDLMNQLQKQVEAANAIFPVDDAFVKLPKVPTELFKLVDDNVFPKLNPKGLNISDNIAALFERYNLKSIELKNFDLAFLRKADVIIKDKVRYNFEM”, “not soluble”. With “MNEKQKLESGQVHPSDKKSEKDYSKYFEAVYIPPSLKDAKKRGKEAVTYHNDFKISEQFKGLGDGRKFYIRTYGCQMNEHDTEVMAGIFMALGYEATNSVDDANVILLNTCAIRENAENKVFGELGHLKALKKNNPDLILGVCGCMSQEESVVNRILKKHPFVDMIFGTHNIHRLPELLSEAYLSKEMVVEVWSKEGDVIENLPKVRNGKIKGWVNIMYGCDKFCTYCIVPYTRGKERSRRPEDIIQEVRRLASEGYKEITLLGQNVNAYGKDFEDMTYGLGDLMDELRKIDIPRIRFTTSHPRDFDDRLIEVLAKGGNLLDHIHLPVQSGSSEVLKLMARKYDRERYMELVRKIKEAMPNASLTTDIIVGFPNETDEQFEETLSLYREVEFDSAYTFIYSPREGTPAAKMKDNVPMRVKKERLQRLNALVNEISAKKMKEYEGKVVEVLVEGESKNNPDILAGYTEKSKLVNFKGPKEAIGKIVRVKIQQAKTWSLDGEMVGEAIEVKLEHHHHHH”, the “soluble on expression in E. coli” value is “soluble”. With “MGSGKPPLILASGSPRRKALLEALGYPIRVAVPGVEEEGLPLPPKALAQALARRKGEAVQGEWVLAADTVVDLDGEVLGKPKDPEENRLFLRRLSGRLHLVHTAFYLRTPKEVVEEVHTARVFFRPLSEEEIAWYVGSGEGLDKAGGYGAQGLGMALLERVEGDFYTVVGLPVSRVFALLWARGFRP”, the “soluble on expression in E. coli” value is recorded as “soluble”. Turning to “GVTGVTTGFTDLDKKTAGLQPSDLIIVAARPSMGKTTFAMNLCENAAMASEKPVLVFSLEMPAEQIMMRMIASLARVDQTKIRTGQNLDEIEWNKIASVVGMFKQKNNLFIDDSSGLTPTDVRSRARRVYRENGGLSMIMVDYLQLMRAPAFSDNRTLEIAEISRSLKALAKELQVPVVALSQLNRTLEQRGDKRPVNSDL”, the “soluble on expression in E. coli” value is on record as “not soluble”. On to “MGSDKIHHHHHHMKVDWDHLQFFLVLARTKTLTNAARIIGVEHSTVARRIQALELALGTTLFKREATGYELTLEGMALVPRVEQMEQAFLQIEKPHQPLQGRVRIGTPEGFGTAFLARLLAEFSIQYPLLTIDLIPVPKMIKLSHREADIVVSIERPTSGPYIITRLSDYCLKIYGSQNYLAQNPPIRRLEDLTQHRFVNYIDDLVYSPELYCLERLPLKLNANFRSSSILAQQIAVSAGAGLAILPKFLADDKPELEEVLEQQVRFTHTFWMLTFVDLQHEPRIKLVWDYLRKQADKYQHLLVD”, for which the “soluble on expression in E. coli” value is “not soluble”. Turning to “ERFQLLMTQIGLQDVTTYEEFTKDAKIEKLVADKKNKTWQFHLHVPQIFPAALFHMMDVGMKRAFSQIAETEMQIVPENQTINETLIQEYWNLIVEPIGKQSPMIGKLLMEQKPTFKEPHFIEVAVHNDMEEATIQQRFQAKIIEN”, the “soluble on expression in E. coli” value is “not soluble”.
